Assay results published in the supplement of paper PMC9732359.
± gives the uncertainty stated by the source.

Assay: protein stability index of a GFP-peptide fusion (yeast GPS) (PSI 1-4); higher = more stable; sorted into four equal gates, so the index is relative within each strain
Outline: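 Peptides tiling yeast proteins in 17-residue segments were fused downstream of GFP, with Cherry expressed from the same plasmid. As a pooled library in yeast, mid-log cultures grown in leucine-free medium were sorted into four equal gates by GFP/Cherry fluorescence ratio. Gate plasmids were PCR-amplified and Illumina-sequenced, and barcodes linked reads to strains. Each peptide received a protein stability index equal to the sum of each gate's read frequency times its gate number.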

| Sequence | protein stability index (doa10∆) | protein stability index (pdr5∆) | protein stability index (san1∆) | protein stability index (ubr1∆) |
| --- | --- | --- | --- | --- |
| ETDGKHGKRRSQVVETH [YMR129W/POM152] | 3.27 ± 0.11 | 2.93 ± 0.097 | 3.21 ± 0.056 | 3.11 ± 0.048 |
| ALRRRVGPSEQNFAEED [REC8] | 3.37 ± 0.12 | 3.51 ± 0.15 | 3.39 ± 0.11 | 3.24 ± 0.098 |
| EFSEHTFVERLPNETIN [DIS3] | 3.34 ± 0.16 | 2.47 ± 0.18 | 3.36 ± 0.11 | 3.23 ± 0.12 |
| FLLTQSKVSIEQRKEAA [RPN7] | 2.27 ± 0.13 | 2.53 ± 0.15 | 2.42 ± 0.088 | 2.48 ± 0.058 |
| VIEQCYLKFIPLKRAIW [SRB8] | 1.5 ± 0.053 | 1.69 ± 0.059 | 1.4 ± 0.099 | 1.32 ± 0.042 |
| NGQSLSPVRSDSADVPA [YMR153W/NUP53] | 3.06 ± 0.081 | 3.15 ± 0.081 | 3.09 ± 0.11 | 2.91 ± 0.05 |
| DVVAHRQLAGAIGYEPL [DIS3] | 2.65 ± 0.074 | 2.43 ± 0.075 | 1.88 ± 0.15 | 2.19 ± 0.11 |
| LDDWISIGYETELKKIT [IRR1] | 2.09 ± 0.07 | 2.75 ± 0.078 | 2.33 ± 0.14 | 2.58 ± 0.053 |
| QLEYKRGEIREIEQVCK [MED7] | 1.49 ± 0.11 | 1.53 ± 0.069 | 2.2 ± 0.18 | 1.45 ± 0.07 |
| VEVCLADLQGSEDHSFR [RPS1A] | 3.44 ± 0.18 | 3.27 ± 0.11 | 3.21 ± 0.17 | 3.25 ± 0.19 |
| ATAIGKGSVAAKTFLEK [PRE8] | 2.13 ± 0.2 | 1.28 ± 0.17 |  |  |
| RTLTAVHDKILEDLVFP [RPS7A] | 3.24 ± 0.13 | 3.15 ± 0.073 | 3.28 ± 0.059 | 3.25 ± 0.098 |
| SKNSPAEDDVIIPQDIL [YJR042W/NUP85] | 3.19 ± 0.13 | 2.96 ± 0.12 | 3.07 ± 0.12 | 3.36 ± 0.19 |
| YSLASVTLKGAKALESL [POP1] | 2.78 ± 0.049 | 2.83 ± 0.052 | 2.83 ± 0.045 | 2.77 ± 0.052 |
| FERIMILDPQVTRFTTW [YJL039C/NUP192] | 1.06 ± 0.077 | 1.33 ± 0.073 | 1.22 ± 0.12 | 1.23 ± 0.062 |
| EESLTVLNCLRTMYFIL [YJR042W/NUP85] | 2.54 ± 0.11 | 1.83 ± 0.081 | 1.38 ± 0.098 | 1.57 ± 0.068 |
| PNLGPQLWLNSSGDFDD [GRR1] | 2.97 ± 0.16 | 3.16 ± 0.22 |  |  |
| VFGISKTSSGSYNYVEN [ITC1] | 3.33 ± 0.083 | 3.12 ± 0.073 | 3.17 ± 0.06 | 3.28 ± 0.041 |
| TKIKPFIKVVNYNHLLP [RPL27A] | 2.49 ± 0.072 | 2.35 ± 0.094 | 2.77 ± 0.093 | 2.64 ± 0.11 |
| NLWKNIFLSKENSAVAA [COR1] | 1.85 ± 0.053 | 2.24 ± 0.059 | 2.01 ± 0.13 | 1.61 ± 0.063 |
| LARASGNYVIIIGHNPD [RPL2A] | 2.8 ± 0.087 | 2.89 ± 0.089 | 2.85 ± 0.096 | 2.68 ± 0.097 |
| FLQSVDITGIRDVSDDV [GRR1] | 1.74 ± 0.041 | 2.12 ± 0.045 | 1.89 ± 0.055 | 1.69 ± 0.036 |
| ASDMSDEDIITIFKYLT [CDC53] | 2.84 ± 0.14 | 3.09 ± 0.13 | 3.23 ± 0.082 | 3.2 ± 0.061 |
| FDKKSFFNGKALNNAIP [PRP8] | 2.06 ± 0.08 | 1.91 ± 0.051 | 1.98 ± 0.15 | 1.92 ± 0.052 |
| SHTGLIRKYGLNICRQC [RPS29A] | 1.51 ± 0.047 | 1.58 ± 0.05 | 1.51 ± 0.093 | 1.89 ± 0.053 |
| SAASIPPQQTYHFPIFN [RPN4] | 2.55 ± 0.044 | 2.83 ± 0.045 | 2.52 ± 0.035 | 2.68 ± 0.031 |

| Sequence | protein stability index (doa10∆) | protein stability index (pdr5∆) | protein stability index (san1∆) | protein stability index (ubr1∆) |
| --- | --- | --- | --- | --- |
| SNGFNNVTFGSKKDPRI [YMR153W/NUP53] | 2.77 ± 0.048 | 2.74 ± 0.059 | 2.89 ± 0.045 | 2.87 ± 0.046 |
| DLEHKEDCVEEFFHLQH [QCR6] | 2.77 ± 0.1 | 2.75 ± 0.11 | 2.69 ± 0.14 | 3.37 ± 0.1 |
| DVNIVNRRLVYSRILKS [YCG1] | 1.36 ± 0.1 | 1.16 ± 0.079 | 1.38 ± 0.17 | 1.21 ± 0.059 |
| RQSKSSGKSNTSNDASN [ITC1] | 3.09 ± 0.095 | 3.28 ± 0.08 | 3.34 ± 0.065 | 3.22 ± 0.076 |
| LQRHLSLGIRPCLRKYE [RRP43] | 2.61 ± 0.061 | 2.66 ± 0.063 | 2.82 ± 0.075 | 3.08 ± 0.053 |
| KTMKTFVIHIQEKNFQT [RPB5] | 2.05 ± 0.091 | 1.85 ± 0.072 | 1.88 ± 0.14 | 2.56 ± 0.088 |
| LQPPKTSSRGRDHKSYS [SMC4] | 2.9 ± 0.056 | 3.21 ± 0.061 | 3 ± 0.071 | 2.86 ± 0.049 |
| RRDDEVLVVRGSKKGQE [RPL26A] | 3.63 ± 0.087 | 3.36 ± 0.089 | 3.59 ± 0.079 | 3.57 ± 0.085 |
| LEFSALSAADIVAQSEV [RPO31] | 3.01 ± 0.093 | 3.13 ± 0.075 | 3.1 ± 0.071 | 3.17 ± 0.059 |
| KVIEEQLKHTKLALAEN [SMC4] | 1.89 ± 0.12 | 1.78 ± 0.1 | 1.32 ± 0.15 | 2.23 ± 0.098 |
| CDILVATPGRLIDSLEN [PRP28] | 3.54 ± 0.12 | 3.24 ± 0.11 | 3.2 ± 0.06 | 3.22 ± 0.065 |
| SSLALVFALHKYKPTPL [SMC4] | 2.18 ± 0.052 | 2.18 ± 0.074 | 2.17 ± 0.088 | 2.93 ± 0.055 |
| KNVRFRVLQLLAVIMDN [YCG1] | 1.64 ± 0.057 | 1.54 ± 0.06 | 1.24 ± 0.099 | 1.51 ± 0.043 |
| KNLERLRGEYNDLQSET [SMC4] | 3.33 ± 0.2 | 3.4 ± 0.083 | 3.25 ± 0.067 | 2.9 ± 0.06 |
| LTFNSKNIQSKDSYINA [FAS2] | 2.84 ± 0.16 | 2.72 ± 0.076 | 2.73 ± 0.17 | 2.68 ± 0.12 |
| KERLTKEAAAIAEGKSK [RPL8B] | 2.19 ± 0.05 | 2.33 ± 0.056 | 2.02 ± 0.073 | 2.38 ± 0.033 |
| KVLLDSKDVQQIDYKLE [RPS7A] | 2.69 ± 0.21 | 3.15 ± 0.15 | 3.31 ± 0.061 | 3.2 ± 0.12 |
| DQNEFLLERTREIHNEA [FAS2] | 3.12 ± 0.092 | 3.13 ± 0.08 | 2.99 ± 0.063 | 3.08 ± 0.067 |
| NVMTPREQYETQVALNE [UBP6] | 3.17 ± 0.087 | 3.22 ± 0.16 | 2.83 ± 0.13 | 3.05 ± 0.091 |
| LVRSIIAFDDLIENKIQ [RPN8] | 1.94 ± 0.075 | 1.92 ± 0.12 | 2.45 ± 0.082 | 2.43 ± 0.099 |
| SVDESARIKDAFITQLE [YJL039C/NUP192] | 3.03 ± 0.12 | 2.61 ± 0.17 | 2.9 ± 0.16 | 2.87 ± 0.11 |
| TQTESKKEENETISNVA [SNF2] | 3.07 ± 0.056 | 3.1 ± 0.048 | 2.98 ± 0.045 | 3.19 ± 0.038 |
| FTYNKFLLNQNKQLSQS [YIL149C/MLP2] | 2.68 ± 0.069 | 2.96 ± 0.06 | 3.15 ± 0.06 | 3.17 ± 0.062 |
| ASEYIETLGLKYLGLKP [FAS1] | 3.27 ± 0.095 | 3.35 ± 0.093 | 3.26 ± 0.074 | 3.06 ± 0.089 |
| NVKFLRIFISNVSENQP [SNF12] | 1.53 ± 0.095 | 1.63 ± 0.075 | 2.02 ± 0.075 | 1.95 ± 0.069 |
